Results taken from patent US20190062420A1 (Janssen / Centocor, published 2019).

T1: human FcγRIIB (NM_004001) expressed on cells (human, UniProt P31994 43-310)
T1 sequence: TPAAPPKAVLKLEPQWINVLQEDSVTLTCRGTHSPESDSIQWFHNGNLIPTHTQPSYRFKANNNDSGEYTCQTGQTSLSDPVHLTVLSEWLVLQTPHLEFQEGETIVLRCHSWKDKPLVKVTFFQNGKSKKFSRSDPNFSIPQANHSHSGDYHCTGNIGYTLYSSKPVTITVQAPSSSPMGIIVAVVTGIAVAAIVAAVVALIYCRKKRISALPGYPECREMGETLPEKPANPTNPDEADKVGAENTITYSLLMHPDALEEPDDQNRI

T2: human FcγRIIA (NM_021642) expressed on cells (human, UniProt P12318 36-317)
T2 sequence: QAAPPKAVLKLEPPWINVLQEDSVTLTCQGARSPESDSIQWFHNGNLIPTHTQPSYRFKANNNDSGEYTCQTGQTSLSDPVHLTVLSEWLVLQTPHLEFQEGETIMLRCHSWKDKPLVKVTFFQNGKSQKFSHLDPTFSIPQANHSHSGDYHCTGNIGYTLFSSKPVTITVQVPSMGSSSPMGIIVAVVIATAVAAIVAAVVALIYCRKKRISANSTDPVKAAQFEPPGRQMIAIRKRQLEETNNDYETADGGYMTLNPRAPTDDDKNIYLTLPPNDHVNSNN

T3: FcγRIIA protein (human, UniProt P12318 36-217, biotinylated (SureLINK Biotin Kit) in the ELISA of Example 1)
T3 sequence: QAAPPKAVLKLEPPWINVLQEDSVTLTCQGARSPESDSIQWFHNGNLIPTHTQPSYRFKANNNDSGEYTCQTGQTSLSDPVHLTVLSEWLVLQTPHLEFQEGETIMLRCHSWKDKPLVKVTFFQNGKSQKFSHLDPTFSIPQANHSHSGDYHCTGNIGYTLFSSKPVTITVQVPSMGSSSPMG

T4: FcγRIIB protein (human, UniProt P31994 43-217, biotinylated (SureLINK Biotin Kit) in the ELISA of Example 1)
T4 sequence: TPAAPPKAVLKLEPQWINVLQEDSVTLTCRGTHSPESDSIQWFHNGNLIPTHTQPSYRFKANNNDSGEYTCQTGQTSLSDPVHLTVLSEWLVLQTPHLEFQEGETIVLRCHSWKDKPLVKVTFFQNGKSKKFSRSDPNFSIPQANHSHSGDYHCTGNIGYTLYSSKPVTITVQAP

T5: human OX40 expressed on HEK-Blue: OX40 cells (human, UniProt P43489 29-277)
T5 construct: also called CD134
T5 sequence: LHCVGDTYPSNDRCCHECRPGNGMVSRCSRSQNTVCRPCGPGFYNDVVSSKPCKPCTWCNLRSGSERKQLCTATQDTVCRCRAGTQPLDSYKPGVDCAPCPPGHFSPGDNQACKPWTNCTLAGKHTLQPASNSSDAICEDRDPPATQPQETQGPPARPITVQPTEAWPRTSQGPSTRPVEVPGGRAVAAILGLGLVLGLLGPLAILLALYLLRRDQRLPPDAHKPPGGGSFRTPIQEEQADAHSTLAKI

B1: OX40SF2IgG2sigma_R2BS29_HC-C (bispecific antibody)
heavy: QVQLVQSGAEVKKPGSSVKVSCKASGYTFKDYTMHWVRQAPGQGLEWIGGIYPNNGGSTYNQNFKDRVTLTADKSTSTAYMELSSLRSEDTAVYYCARMGYHGPHLDFDVWGQGTTVTVSSASTKGPSVFPLAPCSRSTSESTAALGCLVKDYFPEPVTVSWNSGALTSGVHTFPAVLQSSGLYSLSSVVTVPSSNFGTQTYTCNVDHKPSNTKVDKTVERKCCVECPPCPAPPAAASSVFLFPPKPKDTLMISRTPEVTCVVVDVSAEDPEVQFNWYVDGVEVHNAKTKPREEQFNSTFRVVSVLTVLHQDWLNGKEYKCKVSNKGLPSSIEKTISKTKGQPREPQVYTLPPSREEMTKNQVSLTCLVKGFYPSDIAVEWESNGQPENNYKTTPPMLDSDGSFFLYSKLTVDKSRWQQGNVFSCSVMHEALHNHYTQKSLSLSPGKGGGGGSGGGGSGGGGSGGGGSLPAPKNLVVSRVTEDSARLSWTAPDAAFDSFPIYYWEYRVGGEAIVLTVPGSERSYDLTGLKPGTEYFVYINGVKGGEESRPLSAIFTT
light: DIQMTQSPSSLSASVGDRVTITCKASQDVGAAVAWYQQKPGKAPKLLIYWASTRHTGVPSRFSGSGSGTDFTLTISSLQPEDFATYYCQQYINYPLTFGGGTKVEIKRTVAAPSVFIFPPSDEQLKSGTASVVCLLNNFYPREAKVQWKVDNALQSGNSQESVTEQDSKDSTYSLSSTLTLSKADYEKHKVYACEVTHQGLSSPVTKSFNRGEC
notes: mAbtyrin: anti-OX40 antibody OX40SF2, effector silent IgG2sigma, with linker and R2BS29 FN3 domain at the C-terminus of the heavy chain; also called mAbtyrin
B2: OX40SF2IgG2sigma (antibody)
heavy: QVQLVQSGAEVKKPGSSVKVSCKASGYTFKDYTMHWVRQAPGQGLEWIGGIYPNNGGSTYNQNFKDRVTLTADKSTSTAYMELSSLRSEDTAVYYCARMGYHGPHLDFDVWGQGTTVTVSSASTKGPSVFPLAPCSRSTSESTAALGCLVKDYFPEPVTVSWNSGALTSGVHTFPAVLQSSGLYSLSSVVTVPSSNFGTQTYTCNVDHKPSNTKVDKTVERKCCVECPPCPAPPAAASSVFLFPPKPKDTLMISRTPEVTCVVVDVSAEDPEVQFNWYVDGVEVHNAKTKPREEQFNSTFRVVSVLTVLHQDWLNGKEYKCKVSNKGLPSSIEKTISKTKGQPREPQVYTLPPSREEMTKNQVSLTCLVKGFYPSDIAVEWESNGQPENNYKTTPPMLDSDGSFFLYSKLTVDKSRWQQGNVFSCSVMHEALHNHYTQKSLSLSPGK
light: DIQMTQSPSSLSASVGDRVTITCKASQDVGAAVAWYQQKPGKAPKLLIYWASTRHTGVPSRFSGSGSGTDFTLTISSLQPEDFATYYCQQYINYPLTFGGGTKVEIKRTVAAPSVFIFPPSDEQLKSGTASVVCLLNNFYPREAKVQWKVDNALQSGNSQESVTEQDSKDSTYSLSSTLTLSKADYEKHKVYACEVTHQGLSSPVTKSFNRGEC
notes: Anti-OX40 antibody, IgG2 sigma isotype (effector silent Fc: V234A, G237A, P238S, H268A, V309L, A330S, P331S against wild type IgG2); control without FN3 domain; also called parental antibody; parental OX40 antibody
B3: OX40SF2IgG1 (antibody)
heavy: not shown
light: DIQMTQSPSSLSASVGDRVTITCKASQDVGAAVAWYQQKPGKAPKLLIYWASTRHTGVPSRFSGSGSGTDFTLTISSLQPEDFATYYCQQYINYPLTFGGGTKVEIKRTVAAPSVFIFPPSDEQLKSGTASVVCLLNNFYPREAKVQWKVDNALQSGNSQESVTEQDSKDSTYSLSSTLTLSKADYEKHKVYACEVTHQGLSSPVTKSFNRGEC
notes: Anti-OX40 antibody, wild-type IgG1; control without FN3 domain

How the values were obtained:
[1] = biological target: T1, human FcγRIIB (NM_004001) expressed on …; test: cell-based or functional assay
[2] = biological target: T1, human FcγRIIB (NM_004001) expressed on …; test: cell-based or functional assay; remark: listed apart in the source
[3] = biological target: T2, human FcγRIIA (NM_021642) expressed on …; test: cell-based or functional assay
[4] = biological target: T6, human FcγRIIIA (NM_000569) expressed on cells (human, UniProt P08637 17-254); test: cell-based or functional assay
T6 sequence (P08637 17-254 limits assumed): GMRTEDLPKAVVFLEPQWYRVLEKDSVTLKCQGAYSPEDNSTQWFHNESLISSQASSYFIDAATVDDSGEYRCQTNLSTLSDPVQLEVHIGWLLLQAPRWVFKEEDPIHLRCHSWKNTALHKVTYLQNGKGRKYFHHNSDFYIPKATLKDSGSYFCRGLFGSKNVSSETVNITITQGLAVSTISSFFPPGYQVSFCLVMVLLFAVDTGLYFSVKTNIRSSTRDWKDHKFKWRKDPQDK

FcγRIIA protein = biological target: T3, FcγRIIA protein; test: cell-based or functional assay
FcγRIIB protein = biological target: T4, FcγRIIB protein; test: cell-based or functional assay
[5] = biological target: T5, human OX40 expressed on HEK-Blue: OX40 …; test: flow cytometry; HEK-Blue: OX40 cells
Summary of the method: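 HEK-Blue Null 1 cells stably transfected with human OX40 were blocked, then incubated with mAbtyrin for 1.5 h at 4 °C. Binding was detected with a PE anti-human IgG F(ab′)₂ secondary, gating on DRAQ7-excluding live cells and taking geometric mean fluorescence. EC50 came from nonlinear regression versus log antibody concentration.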

[6] = biological target: T6, human FcγRIIIA (NM_000569) expressed on …; test: flow cytometry; Expi293F cells transfected with FcγRIIIA
Method: Plasmids expressing cDNAs encoding human FcγRI (NM_000566) (SEQ ID NO: 44), FcγRIIA (NM_021642) (SEQ ID NO: 2), FcγRIIB (NM_004001) (SEQ ID NO: 3), and FcγRIIIA (NM_000569) (SEQ ID NO: 45) (Origene) were transiently transfected into Expi293F cells by ExpiFectamine293 transfection kit (Life Technologies). Flow cytometry assays were performed 48 h after transfection.
2×10⁵ cells per well were seeded in 96-well plate and blocked in BSA Stain Buffer (BD Biosciences, San Jose, USA) for 30 min at 4° C. Cells were incubated with test mAbtyrin on ice for 1.5 h at 4° C. After being washed twice with BSA stain buffer, the cells were incubated with R-PE labeled anti-human or anti-mouse IgG secondary antibody (Jackson Immunoresearch Laboratories) for 45 min at 4° C. The cells were washed twice in stain buffer and then resuspended in 150 μL of Stain Buffer containing 1:200 diluted DRAQ7 live/dead stain (Cell Signaling Technology, Danvers, USA). PE and DRAQ7 signals of the stained cells were detected by Miltenyi MACSQuant flow cytometer (Miltenyi Biotec, Auburn, USA) using B2 and B4 channel respectively. Live cells were gated on DRAQ7 exclusion and the geometric mean fluorescence signals were determined for at least 10,000 live events collected. FlowJo software (Tree Star) was used for analysis. Data was plotted as the logarithm of antibody concentration versus mean fluorescence signals. Nonlinear regression analysis was performed by GraphPad Prism 6 (GraphPad Software, Inc.) and EC₅₀ values were calculated.

Row | Binder | % activity at 1 µg/ml with Raji cells (HEK-Blue: OX40 NF-κB reporter, relative to 1 µg/ml OX40 ligand) [1] [%] | fold of agonism enhancement upon crosslinking (Raji cells) [1] [fold] | % activity at 1 µg/ml with Raji cells (HEK-Blue: OX40 NF-κB reporter) [2] [%] | ADCP EC50 [3] [µg/mL] | ADCC (fold activation) at 1 µg/ml [4] [fold] | IFNγ production by activated CD4 T cells, plate-coated FcγRIIA (FcγRIIA protein) [pg/mL] | TNFα production by activated CD4 T cells, plate-coated FcγRIIA (FcγRIIA protein) [pg/mL] | IFNγ production by activated CD4 T cells, plate-coated FcγRIIb (FcγRIIB protein) [pg/mL] | TNFα production by activated CD4 T cells, plate-coated FcγRIIb (FcγRIIB protein) [pg/mL] | Binding to HEK-Blue: OX40 cells (mean signal at 1 µg/ml) [5] [mean fluorescence signal] | EC50 [5] [µg/mL] | EC50 [6] [µg/mL]
1 | B1 | 86 | 15 | 93 | 0.0375 | 1 | 1550 | 226 | 1330 | 250 | 9180 | 0.548 | > 10
2 | B2 | 2.2 | 1 | 2 | > 1 | 1 | 97 | 28 | 70 | 30 | 13900 | 0.166 | –
3 | B3 | – | – | 9 | 0.0393 | 9 | 92 | 28 | 70 | 30 | – | 0.229 | 0.339
